Test system: control human primary myoblasts
Assay: Expression microarray of primary myoblasts transduced with lentivirus carrying DUX4-fl, DUX4-s or GFP
Protocol: Primary human myoblasts were collected and cultured as previously described (Snider et al., 2010). Primary myoblasts were maintained at or below 70% confluency for proliferation. For differentiation, cells were allowed to reach 95-100% confluency in growth medium. Once confluency was reached, the cells were changed to differentiation medium (F10 media supplemented with 1% horse serum, 10 μg/mL insulin, and 10 μg/mL transferrin, penicillin/streptomycin) and maintained for 4 days. Human RD cells were grown in DMEM in 10% bovine calf serum (Hyclone) and penicillin/streptomycin. The primary myoblasts were transduced with lentivirus carrying DUX-fl, DUX4- or GFP (MOI=15).
Expression microarrays were performed on the transduced cells at 24 hours after transduction as follows. […] Samples were analyzed by Illumina Human Whole Genome microarrays. Probe intensities were corrected, normalized, and summarized by the Lumi package of Bioconductor (Du et al., 2008). Differentially expressed genes were identified by the LIMMA package of Bioconductor (Wettenhall and Smyth, 2004). Gene set enrichment analysis (GSEA) was performed using the Bioconductor GOstats package (Falcon and Gentleman, 2007).

B1: DUX4-s: short splice form of DUX4 (SEQ ID NO:112), keeps the double-homeobox domains, lacks the C-terminal activation domain (protein, listed as Homo sapiens)
chain: MALPTPSDSTLPAEARGRGRRRRLVWTPSQSEALRACFERNPYPGIATRERLAQAIGIPEPRVQIWFQNERSRQLRQHRRESRPWPGRRGPPEGRRKRTAVTGSQTALLLRAFEKDRFPGIAAREELARETGLPESRIQIWFQNRRARHPGQGGRAPAQV
IFITM3 expression fc (Refseq NM_021034.2, cultured human skeletal muscle): −0.1274 | NEFH expression fc (Refseq NM_021076.2): 0.09952 | fc of SLC8A1 (expression array) (Refseq NM_021097.2): 1.046 | PSAT1 fc (Refseq NM_021154.3): 0.7365 | RAB40C fc (Refseq NM_021168.2): −0.07138 | fc of SLC30A1 (expression array) (Refseq NM_021194.2): 1.236 | CTDSP1 fc (Refseq NM_021198.1): 0.04155 | ARHGAP22 fc (Refseq NM_021226.2): 0.07773 | fc of NTN4 (expression array) (Refseq NM_021229.3): 0.03724 | PELI2 expression fc (Refseq NM_021255.2): −0.3732 | PLEKHA2 fc (Refseq NM_021623.1): 0.062 | AVPI1 expression fc (Refseq NM_021732.1): 0.1884 | fc of FAM3A (expression array) (Refseq NM_021806.1): −0.1833 | APOBEC3G expression fc (Refseq NM_021822.1, cultured human skeletal muscle): 1.408 | fc of C14orf93 (expression array) (Refseq NM_021944.1): −0.1073 | HSPA2 expression fc (Refseq NM_021979.3): −0.2546 | CXCL16 fc (Refseq NM_022059.1): 1.184 | NOD2 fc (Refseq NM_022162.1): 0.4347 | IFIH1 expression fc (Refseq NM_022168.2, cultured human skeletal muscle): 1.659 | HS1BP3 fc (Refseq NM_022460.3): 0.05143 | C14orf173 fc (Refseq NM_022489.2): −0.2714 | FEZ1 fc (Refseq NM_022549.2): 0.19 | HIPK2 fc (Refseq NM_022740.2): 0.3559 | fc of MOSC1 (expression array) (Refseq NM_022746.2): −0.1084 | PARP12 expression fc (Refseq NM_022750.2, cultured human skeletal muscle): 0.7767 | CRTC3 fc (Refseq NM_022769.3): −0.1184 | FAM129B fc (Refseq NM_022833.2): 0.4382 | IFI6 expression fc (Refseq NM_022872.2, cultured human skeletal muscle): −0.03611 | FGFR3 expression fc (Refseq NM_022965.1): 0.04147 | PRAMEF1 expression fc (Refseq NM_023013.1): 0.0691 | PRAMEF2 expression fc (Refseq NM_023014.1): −0.04937 | C8orf33 expression fc (Refseq NM_023080.1): −0.06075 | GRAMD3 fc (Refseq NM_023927.1): 0.3772 | NEUROG2 expression fc (Refseq NM_024019.2): −0.004473 | NUP37 fc (Refseq NM_024057.2): −0.1339 | PRRG4 expression fc (Refseq NM_024081.4): 0.2096 | TRIM48 expression fc (Refseq NM_024114.2): −0.07954 | DHX58 expression fc (Refseq NM_024119.2, cultured human skeletal muscle): 0.6965 | PRKAG2 fc (Refseq NM_024429.1): 0.7547 | fc of FAM65A (expression array) (Refseq NM_024519.2): −0.1263 | fc of ZC3HAV1 (expression array) (Refseq NM_024625.3): 1.471 | YRDC expression fc (Refseq NM_024640.3): 0.000579 | NPEPL1 fc (Refseq NM_024663.3): −0.2631 | SNIP1 expression fc (Refseq NM_024700.2): −0.174 | fc of FAM57A (expression array) (Refseq NM_024792.1): −0.003135 | C13orf34 expression fc (Refseq NM_024808.2): −0.002127 | fc of NUDT18 (expression array) (Refseq NM_024815.3): 0.1692 | fc of ZNF672 (expression array) (Refseq NM_024836.1): −0.1481 | C14orf159 expression fc (Refseq NM_024952.5, cultured human skeletal muscle): 0.5194 | NRSN2 fc (Refseq NM_024958.1): 0.06807 | SLC24A6 fc (Refseq NM_024959.2): 0.0001018 | CSRNP3 expression fc (Refseq NM_024969.2): −0.07941 | fc of ULBP1 (expression array) (Refseq NM_025218.2): 0.6193 | C6orf148 expression fc (Refseq NM_030568.2): −0.1046 | KLHL15 expression fc (Refseq NM_030624.1): 0.7742 | fc of ZBP1 (expression array) (Refseq NM_030776.1): 1.187 | SLC2A10 fc (Refseq NM_030777.3): −0.3197 | SYNC1 fc (Refseq NM_030786.1): −0.2508 | PDRG1 expression fc (Refseq NM_030815.2): 0.0622 | UNC93B1 expression fc (Refseq NM_030930.2, cultured human skeletal muscle): 0.9411 | PPP1R14C expression fc (Refseq NM_030949.2): −0.01369 | TRIM56 fc (Refseq NM_030961.1): 0.3086 | fc of RNF146 (expression array) (Refseq NM_030963.2): 0.1463 | ADPGK expression fc (Refseq NM_031284.3): 0.09196 | C11orf68 fc (Refseq NM_031450.2): 0.3616 | FAM107B expression fc (Refseq NM_031453.2): −0.1841 | PARP9 expression fc (Refseq NM_031458.1, cultured human skeletal muscle): 0.4426 | IFI27L2 fc (Refseq NM_032036.2): −0.02949 | SFRS2B expression fc (Refseq NM_032102.2): −0.3335 | fc of ATRIP (expression array) (Refseq NM_032166.2): 0.002138 | CEP78 expression fc (Refseq NM_032171.1): −0.1396 | SON expression fc (Refseq NM_032195.1): −0.2838 | LARP1B expression fc (Refseq NM_032239.2): −0.2602 | MED10 expression fc (Refseq NM_032286.2): 0.5994 | C1orf57 fc (Refseq NM_032324.1): 0.3544 | ELOF1 expression fc (Refseq NM_032377.3): −0.3008 | fc of C15orf48 (expression array) (Refseq NM_032413.2): 1.653 | PKIB expression fc (Refseq NM_032471.4): −0.1719 | KBTBD8 expression fc (Refseq NM_032505.1): 0.01077 | TMEM185A expression fc (Refseq NM_032508.1): 0.2327 | PARD6G fc (Refseq NM_032510.3): −0.01049 | fc of EBPL (expression array) (Refseq NM_032565.2): −0.0901 | fc of ACCS (expression array) (Refseq NM_032592.3): −0.1557 | RBBP6 expression fc (Refseq NM_032626.5): −0.1339 | SPRYD5 expression fc (Refseq NM_032681.1): −0.07702 | fc of SPPL2A (expression array) (Refseq NM_032802.3): 1.124 | ATOH8 expression fc (Refseq NM_032827.4, cultured human skeletal muscle): −0.2886 | CORO6 fc (Refseq NM_032854.2): −0.3004 | fc of TIGD5 (expression array) (Refseq NM_032862.2): −0.2163 | CASP6 expression fc (Refseq NM_032992.2): 0.2336 | TRIM5 fc (Refseq NM_033034.1): 0.5003 | EPSTI1 expression fc (Refseq NM_033255.2, cultured human skeletal muscle): 0.6618 | TP53INP1 fc (Refseq NM_033285.2): −0.5734 | CASP1 fc (Refseq NM_033294.2): 2.171 | PRIC285 expression fc (Refseq NM_033405.2, cultured human skeletal muscle): 0.8634 | ZNF622 expression fc (Refseq NM_033414.2): 0.01403 | PANX2 expression fc (Refseq NM_052839.2): 0.2001 | fc of C20orf72 (expression array) (Refseq NM_052865.2): −0.05254 | fc of GBP5 (expression array) (Refseq NM_052942.2): 1.314 | fc of ALPK2 (expression array) (Refseq NM_052947.3): −1.08 | fc of ANTXR1 (expression array) (Refseq NM_053034.1): 0.3595 | AP1S1 fc (Refseq NM_057089.2): −0.1404 | CCNE1 expression fc (Refseq NM_057182.1): −0.1277 | FBXO32 fc (Refseq NM_058229.2): 0.7666 | CCNT2 expression fc (Refseq NM_058241.1): −0.3221 | SLC44A1 fc (Refseq NM_080546.3): 0.7801 | fc of C2orf28 (expression array) (Refseq NM_080592.2): −0.07859 | DYNLL2 expression fc (Refseq NM_080677.1): 0.6521 | HOM-TES-103 fc (Refseq NM_080731.1): −0.3166 | ZNF280A expression fc (Refseq NM_080740.3): 0.05889 | C20orf127 expression fc (Refseq NM_080757.1, cultured human skeletal muscle): 0.4401 | fc of PTPRA (expression array) (Refseq NM_080841.2): 0.04113 | ASB5 fc (Refseq NM_080874.2): −0.4567 | APBB3 expression fc (Refseq NM_133172.2, cultured human skeletal muscle): 0.03992 | fc of DIS3L (expression array) (Refseq NM_133375.2): −0.2728 | C6orf117 expression fc (Refseq NM_138409.1): −0.06998 | fc of SDSL (expression array) (Refseq NM_138432.2): −0.09243 | TRIM43 expression fc (Refseq NM_138800.1): 0.02385 | CMBL expression fc (Refseq NM_138809.3, cultured human skeletal muscle): 0.06858 | fc of FGD4 (expression array) (Refseq NM_139241.1): 1.214 | ANGPTL4 fc (Refseq NM_139314.1): 1.267 | MBD3L2 expression fc (Refseq NM_144614.2): 0.02684 | JSRP1 fc (Refseq NM_144616.2): −0.4661 | fc of PPM1M (expression array) (Refseq NM_144641.1): −0.2381 | fc of C1orf58 (expression array) (Refseq NM_144695.2): 1.054 | FXYD5 fc (Refseq NM_144779.1): 0.09461 | Cllorf82 expression fc (Refseq NM_145018.2): −0.2738 | CDC42EP5 fc (Refseq NM_145057.2): 0.1387 | SPATA18 expression fc (Refseq NM_145263.2, cultured human skeletal muscle): −0.214 | MOBKL2C fc (Refseq NM_145279.4): 0.1274 | ZNF296 expression fc (Refseq NM_145288.1): 0.1758 | fc of MGST1 (expression array) (Refseq NM_145792.1): 0.2271 | OSBPL7 fc (Refseq NM_145798.2): −0.3669 | TP53I3 expression fc (Refseq NM_147184.1, cultured human skeletal muscle): 0.192 | fc of GJD3 (expression array) (Refseq NM_152219.3): 0.8646 | ACPL2 fc (Refseq NM_152282.3): 0.1468 | fc of C1orf131 (expression array) (Refseq NM_152379.2): −0.08789 | fc of PPM1K (expression array) (Refseq NM_152542.2): 1.44 | C12orf50 expression fc (Refseq NM_152589.1): −0.02137
